# According to patent publication US5981483, “Compositions comprising modulators of cytokines of the TGF-β superfamily” (Mount Sinai Hospital Corporation, dated 1999):
# Bridges are numbered along the chain shown (N, C = ends). Where no end group is shown, it is not given here.
# B1: reduced and alkylated TRH1b peptide from TβRII (peptide)
# peptide: CVAVWRKNDENITLETVCHD
# modifications: also: Cys reduced and alkylated, agent not given here, exact limits not given here
# B2: recombinant human BMP-2 (ligand)
# chain: QAKHKQRKRLKSSCKRHPLYVDFSDVGWNDWIVAPPGYHAFYCHGECPFPLADHLNSTNHAIVQTLVNSVNSKIPKACCVPTELSAISMLYLDENEKVVLKNYQDMVVEGCGCR
# B3: bovine fetuin (other)
# chain: IPLDPVAGYKEPACDDPDTEQAALAAVDYINKHLPRGYKHTLNQIDSVKVWPRRPTGEVYDIEIDTLETTCHVLDPTPLANCSVRQQTQHAVEGDCDIHVLKQDGQFSVLFTKCDSSPDSAEDVRKLCPDCPLLAPLNDSRVVHAVEVALATFNAESNGSYLQLVEISRAQFVPLPVSVSVEFAVAATDCIAKEVVDPTKCNLLAEKQYGFCKGSVIQKALGGEDVRVTCTLFQTQPVIPQPQPDGAEAEAPSAVPDAAGPTPSAAGPPVASVVVGPSVVAVPLPLHRAHYDLRHTFSGVASVESSSGEAFHVGKTPIVGQPSIPGGPVRLCPGRIRYFKI
# B4: cyclized TRH1b peptide from TβRII (peptide)
# peptide: CVAVWRKNDENITLETVC
# modifications: disulfide 1-18 (inferred); also: exact limits not given here, terminal residues may be removed
# Columns and labels:
# purified human TGF-β1 [1] = target: T1, purified human TGF-β1 (human, UniProt P01137); assay: SPR (BIAcore); analyte over immobilized cytokine
# Experimental: (§1) In this system, a purified protein serving as the ligand is covalently coupled to a carboxymethylated dextran surface, and binding molecules (i.e. the analyte) are passed in a fluid phase across the surface. Binding of the analyte to ligand causes a change in reflected light which is directly proportional to mass bound, and is measured in arbitrary response units (R.U.). Analyte-ligand binding is observed as both increasing response with time during the injection of analyte, and the difference in the position of the baseline before and after injection.
# (§2) Data was analyzed using the BIA-evaluation software (Pharmacia Biosensor). The association rate constant, $kass$, was calculated by first plotting the change in response with time versus response (i.e. dR/dT vs R). When the slope of the line from this graph is plotted versus analyte concentration (i.e d(dR/dT)/dR vs C), $kass$ is obtained from the slope of the line. The dissociation rate constant, $kdiss$, is obtained during the decrease in response with time after analyte injection is discontinued. Specifically, $kdiss$ was obtained from the slope of the line in a plot of $\ln(Rt1/Rtn)$ vs time. The affinity constants were calculated from K_D = kdiss/kass. Variance for $kass$ is standard error of the linear regression plot, and for $kdiss$ values are the mean ± range of 3 or more independent injections.
# (§3) Data was analyzed using the BIA-evaluation software (Pharmacia Biosensor). The association rate constant, $kass$, was calculated by first plotting the change in response with time versus response (ie. dR/dT vs R).
# purified human TGF-β1 [2] = target: T1, purified human TGF-β1; assay: SPR (BIAcore); analyte over immobilized cytokine; repeated calculation
# Experimental: as §2
# (§4) Binding constants for fetuins and TRH1 peptide interactions with TGF-β and BMPs measured using the BIAcore and BIA-evaluation software (Pharmacia Biosensor). The change in response with time was plotted for each analyte concentration (ie. dR/dT vs R), and the slope of these lines were then plotted as a function of analyte concentration (i.e d(dR/dT)/dR vs C), where the slope yields $kass$. The dissociation rate constant, $kdiss$, is obtained after analyte injection is discontinued as the slope of $\ln(Rtl/Rtn)$ vs time. K_Ds are $kdiss/kass$. Variance for $kass$ is standard error of the linear regression plot, and for $kdiss$ values are the mean ± range of 3 or more independent injections.
# bovine fetuin [3] = target: B3; assay: SPR (BIAcore); analyte over immobilized cytokine
# Experimental: as §1, §2, §3
# [4] = target: T2, adult human fetuin/α2-HS glycoprotein (human, UniProt P02765); assay: SPR (BIAcore); analyte over immobilized cytokine
# T2 sequence: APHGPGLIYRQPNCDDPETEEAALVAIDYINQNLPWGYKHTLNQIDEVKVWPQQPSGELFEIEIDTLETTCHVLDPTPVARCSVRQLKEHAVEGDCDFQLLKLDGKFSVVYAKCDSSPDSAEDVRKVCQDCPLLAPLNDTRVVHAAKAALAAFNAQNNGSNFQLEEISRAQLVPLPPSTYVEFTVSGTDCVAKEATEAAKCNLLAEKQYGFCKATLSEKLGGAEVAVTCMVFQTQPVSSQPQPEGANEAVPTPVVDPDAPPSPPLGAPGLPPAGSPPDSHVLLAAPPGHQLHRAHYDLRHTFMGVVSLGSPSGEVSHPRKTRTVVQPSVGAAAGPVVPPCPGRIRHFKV
# Experimental: as §1, §4
# bovine serum albumin = bovine serum albumin (bovine, UniProt P02769); assay: SPR (BIAcore), BMP-2 immobilized
# Experimental: as §1
# bovine fetuin [5] = target: B3; assay: SPR (BIAcore); analyte over immobilized cytokine; repeated calculation
# Experimental: as §2, §4
# recombinant human BMP-2 [6] = target: B2; assay: SPR (BIAcore)
# recombinant human BMP-2 [7] = target: B2; assay: SPR (BIAcore); analyte over immobilized cytokine
# Experimental: as §1, §2, §3
# recombinant human BMP-2 [8] = target: B2; assay: SPR (BIAcore); analyte over immobilized cytokine; repeated calculation
# Experimental: as §2, §4
binder,measurement,setting,value
B1,Kd,purified human TGF-β1 [1],> 10000 nM
same,Kd,purified human TGF-β1 [2],> 10000 nM
B2,Kd,bovine fetuin [3],36 nM
same,Kd,[4],51 nM
same,binding result,bovine serum albumin,"no binding (tested: 0.22, 0.29, 0.44, 0.59, 0.88 µM)"
same,Kd,bovine fetuin [5],27 nM
B3,fold greater affinity than fetuin binding to TGF-β1,recombinant human BMP-2 [6],~100 times
B4,Kd,recombinant human BMP-2 [7],> 10000 nM
same,Kd,purified human TGF-β1 [1],520 nM
same,koff,purified human TGF-β1 [1],0.0019 s⁻¹
same,kon,purified human TGF-β1 [1],3700 M⁻¹ s⁻¹
same,Kd,recombinant human BMP-2 [8],> 10000 nM
same,Kd,purified human TGF-β1 [2],1000 nM
same,koff,purified human TGF-β1 [2],0.0023 s⁻¹
same,kon,purified human TGF-β1 [2],2200 M⁻¹ s⁻¹
